We go through five molecules from patent US20250101096A1 (SERA PROGNOSTICS, published 2025).

Assay [1] addresses T1, anti-SHBG antibody clone variant 4G10.F8.
T1 construct: Mouse monoclonal; variant form expressed from a standard backbone in CHO cells; also called SHBG (4G10.F8) Anti SHBG v1; SHBG #6
In words: ECLIA, single peptide competes with SHBG for the antibody.

For a further assay, the target named is C4 Pos Control #4. The description is as above.
Assay [2] has as its target T2, anti-SHBG antibody clone variant 13C9.E5.
T2 construct: Mouse monoclonal; variant form; also called SHBG (13C9.E5) Anti SHBG v2; SHBG #16
Described as above.

Assay [3] concerns the target T3, human insulin-like growth factor binding protein 4 (IBP4) (human, UniProt P22692 22-258).
T3 construct: also called IBP4 protein; IGFBP4
T3 sequence: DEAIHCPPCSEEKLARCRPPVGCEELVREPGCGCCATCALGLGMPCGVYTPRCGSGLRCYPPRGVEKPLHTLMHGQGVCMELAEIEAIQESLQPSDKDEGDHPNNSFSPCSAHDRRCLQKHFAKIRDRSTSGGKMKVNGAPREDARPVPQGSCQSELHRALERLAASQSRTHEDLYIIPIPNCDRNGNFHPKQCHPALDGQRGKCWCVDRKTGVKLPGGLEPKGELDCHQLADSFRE
As to the kind of experiment: AC-MS, mAb on M-PVA beads, QC2 serum, round 2 (beads reused).

Assay [4] deals with T3, human insulin-like growth factor …. As to the kind of experiment: SPR, format and IBP4 form not stated.
For assay [5] the target is unchanged. In words: AC-MS, 10 ul QC2 serum, M-PVA beads coupled at 400 ug/ml mAb. An excerpt:
(§1) AC-MS performance at reduced IBP4 antibody coupling density. IBP4 antibodies were coupled to M-PVA beads at concentrations of […] in the coupling reaction to test the performance of M-PVA beads with reduced density of coupled antibody. Comparison of the IBP4 response ratios obtained in AC-MS experiments with M-PVA beads with a low density of coupled mAb should reveal differences in the apparent affinity of the antibodies to IBP4 protein.
(§2) M-PVA beads coupled to IBP4 mAbs 1H9.B6, 5C11.A7, 7G11.H4 or 5B3.G9 at each concentration were used in AC-MS experiments with 10 μl of QC2 serum.

For assay [6] the target is unchanged. As to the kind of experiment: AC-MS, 10 ul QC2 serum, M-PVA beads at reduced mAb coupling density.
Description: as §1, §2

Assay [7] shares this target. In words: AC-MS, 10 ul QC2 serum, M-PVA beads coupled at 100 ug/ml mAb.
Description: as §1, §2

Assay [8] has the same target. In words: AC-MS, mAb on M-PVA beads, pooled pregnant serum, peptide …. From the text:
(§3) Anti-IBP4 antibody evaluation and selection. A total of 8 hybridoma clones (1H9.B6, 5C11.A7, 7G11.H4, 3D4.E9, 1G3.A3, 8G4.G11, 5F10.B2, and 3D8.A11) were produced according to the “additional production of anti-IBP4 antibodies” methods disclosed in Example 1 and screened by AC-MS, shown in Table 10 below. Monoclonal antibodies from these clones purified by protein-G affinity chromatography were covalently coupled to M-PVA magnetic beads and used in AC-MS experiments using pooled pregnant serum. The 5B3.G9 anti-IBP4 antibody clone was included in this analysis for comparison to the performance of the additional IBP4 antibodies, as shown and italicized in Table 10 below. Table 10 includes a summary of the additional antibodies Response Ratios and shared epitope binding results as determined by the competitive binding assays of Example 3.

The target is the same in assay [9]. In words: AC-MS, mAb on M-PVA beads, QC2 serum, round 1.
Assay [10] shares this target. In words: AC-MS, mAb on M-PVA beads, QC2 serum, round 3 (beads reused).
Assay [11] has the same target. As to the kind of experiment: AC-MS, 10 ul QC2 serum, M-PVA beads coupled at 25 ug/ml mAb.
Description: as §1, §2

The target is the same in assay [12]. As to the kind of experiment: AC-MS, mAb on M-PVA beads, pooled pregnant serum.
Description: as §3

Numbering of substitutions follows the chain as printed.

T2 sequence (VH, as listed by the source): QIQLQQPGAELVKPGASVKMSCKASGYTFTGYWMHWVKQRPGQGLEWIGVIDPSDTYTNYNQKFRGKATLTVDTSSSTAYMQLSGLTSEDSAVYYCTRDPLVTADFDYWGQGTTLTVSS
T1 sequence (heavy, as listed by the source, chain 1 of 2): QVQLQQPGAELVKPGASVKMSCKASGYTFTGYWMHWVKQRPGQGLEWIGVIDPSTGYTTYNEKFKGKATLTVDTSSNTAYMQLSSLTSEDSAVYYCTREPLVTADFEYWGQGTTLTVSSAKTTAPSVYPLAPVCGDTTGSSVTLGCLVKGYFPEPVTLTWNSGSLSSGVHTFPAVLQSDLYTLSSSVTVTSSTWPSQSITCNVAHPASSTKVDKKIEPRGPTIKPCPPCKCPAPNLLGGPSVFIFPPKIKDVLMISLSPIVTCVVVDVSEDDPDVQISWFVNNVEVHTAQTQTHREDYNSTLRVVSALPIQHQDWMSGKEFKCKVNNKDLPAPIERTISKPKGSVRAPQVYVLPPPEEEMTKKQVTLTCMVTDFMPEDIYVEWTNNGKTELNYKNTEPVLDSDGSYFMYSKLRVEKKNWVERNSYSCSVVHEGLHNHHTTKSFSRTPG
T1 sequence (light, as listed by the source, chain 2 of 2): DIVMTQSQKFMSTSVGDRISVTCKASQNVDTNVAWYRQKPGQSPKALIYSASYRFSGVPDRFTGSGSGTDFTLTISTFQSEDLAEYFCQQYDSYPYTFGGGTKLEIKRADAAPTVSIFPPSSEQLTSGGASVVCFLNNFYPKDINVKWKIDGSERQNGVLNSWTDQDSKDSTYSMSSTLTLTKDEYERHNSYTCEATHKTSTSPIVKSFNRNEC

B1: 1 (peptide)
peptide: LRPVLPTQSAHDPP
notes: SHBG peptide of pool 1+2+3; also called peptide 1; Individual Peptide 1
Turning to B1, in assay [1], the “% Unblocked Signal at 0.07 uMolar” value was determined as 95.8%, the “% Unblocked Signal at 0.27 uMolar” value was found to be 83% and the “% Unblocked Signal at 1.08 uMolar” value is 53.2%. In addition, in the assay with C4 Pos Control #4, the “% Unblocked Signal at 0.07 uMolar” value turned out to be 93.3%, the “% Unblocked Signal at 0.27 uMolar” value is 77.1% and the “% Unblocked Signal at 1.08 uMolar” value was 66.3%. Further, in assay [2], the “% Unblocked Signal at 0.07 uMolar” value is 93.4%, the “% Unblocked Signal at 0.27 uMolar” value came to 89.6% and the “% Unblocked Signal at 1.08 uMolar” value was 86.8%.

B2: anti-IBP4 antibody 5B3.G9 (antibody, mouse IgG1, kappa)
heavy: EVQLQQSGPELVKPGASAKISCKASGYTFTDYYMNWVKQSHGKSLEWIGDINPNNGGSAYNQKFKGKATLTVDKSSSTAYMELRSLTSEDSAVYYCARWDGGFDYWGQGTTLTVSSAKTTPPSVYPLAPGSAAQTNSMVTLGCLVKGYFPEPVTVTWNSGSLSSGVHTFPAVLQSDLYTLSSSVTVPSSTWPSQTVTCNVAHPASSTKVDKKIVPRDCGCKPCICTVPEVSSVFIFPPKPKDVLTITLTPKVTCVVVDISKDDPEVQFSWFVDDVEVHTAQTKPREEQINSTFRSVSELPIMHQDWLNGKEFKCRVNSAAFPAPIEKTISKTKGRPKAPQVYTIPPPKEQMAKDKVSLTCMITNFFPEDITVEWQWNGQPAENYKNTQPIMDTDGSYFVYSKLNVQKSNWEAGNTFTCSVLHEGLHNHHTEKSLSHSPGK
light: DIVMTQSQKFMSTSVRDRVSVTCKASQNVGTNVAWYQQKPGQSPKALIYSASYRYSGVPDRFTGSGSGTAFTLTISNVQSEDLAEYFCQQYNIYPLTFGAGTKLELKRADAAPTVSIFPPSSEQLTSGGASVVCFLNNFYPRDINVKWKIDGSERQNGVLNSWTDQDSKDSTYSMSSTLTLTKDEYERHNSYTCEATHKTSTSPIVKSFNRNECK
Regarding B2, the “ave RR” value in assay [3] is 0.534; in assay [5], 0.47; in [7], 0.449; in [9], 0.533; in assay [10], 0.462; in assay [11], 0.231. The molecule further displayed an equilibrium dissociation constant (Kd) in assay [4] of 10 nM. Moreover, the koff in assay [4] turned out to be 0.0021 s⁻¹. Moreover, the kon in assay [4] came to 200000 M⁻¹ s⁻¹. Besides, the t1/2 in [4] worked out at 5.5 min. In addition, the “percentage of the IBP4 RR at 25 relative to 400 coupling density” value in assay [6] is 49%. The “Response Ratio” value in assay [8] came to 0.482. Besides, in [12], the “ave IBP4 AC-MS RR” value came out at 0.482.

B3: anti-IBP4 antibody 1H9.B6 (antibody, mouse IgG1, kappa, V domains shown)
VH: EVQLQQSGPELVKPGASVKISCKTSGYTFTDYYMNWVKQSHGKSLEWIGDINPNNGGAGYNQKFKGKATLTVDKSSSTAYMELRSLTSEDSAVYYCARWGWDRYFDYWGQGTTLTVSS
VL: DIVMTQSQKFMSTSVGDRVSVTCKASQNVGIDVAWYQQKPGQSPKALIYSASYRSSGVPDRFTGSGSGTDFTLTINNVQSEDLAEYFCQQYNSYPLAFGSGTKLEIKR
notes: Mouse hybridoma mAb raised against FL IBP4; also called IBP4-1H9.B6
As for B3, the “ave RR” value in assay [3] was 0.607; in assay [5], 0.586; in assay [7], 0.562; in assay [9], 0.602; in assay [10], 0.62; in [11], 0.479. In addition, the Kd in [4] worked out at 1.5 nM. Besides, the dissociation rate constant (koff) in [4] amounted to 0.0009 s⁻¹. The same molecule displayed an on-rate constant (kon) in assay [4] of 600000 M⁻¹ s⁻¹. In addition, the t1/2 in assay [4] was 12.8 min. The “percentage of the IBP4 RR at 25 relative to 400 coupling density” value in assay [6] was found to be 82%. Besides, the “Response Ratio” value in assay [8] came out at 0.588. The “ave IBP4 AC-MS RR” value in [12] is 0.588.

B4: anti-IBP4 antibody 5C11.A7 (antibody, mouse IgG1, kappa, V domains shown)
VH: QVQLQQSGAELVRPGASVTLSCKASGYTFTDYEMHWVRQTPVHGLEWIGAIDTETGGPAYNQKFKGKAILTADKSSSTAYMELRSLTSEDSAVYFCTRARGSRSVYYFDNWGQGTTLTVSS
VL: B3 VL with I31T, D32N, Q42H, A46V, S55H, N76G, E85D, N92D, S93T, A97T
notes: Mouse hybridoma mAb raised against FL IBP4; also called IBP4-5C11.A7
For the molecule B4, the “ave RR” value is 0.609 in assay [3]; 0.595 in assay [5]; 0.567 in assay [7]; 0.651 in [9]; 0.619 in assay [10]; 0.47 in [11]. In [4], this molecule gave an equilibrium dissociation constant (Kd) of 1.6 nM. This molecule returned a koff in assay [4] of 0.00074 s⁻¹. The molecule further returned a kon in [4] of 450000 M⁻¹ s⁻¹. In [4], this molecule displayed a t1/2 of 15.6 min. Further, in assay [6], the “percentage of the IBP4 RR at 25 relative to 400 coupling density” value worked out at 79%. Further, the “Response Ratio” value in assay [8] was determined as 0.548. The “ave IBP4 AC-MS RR” value in [12] stood at 0.548.

B5: anti-IBP4 antibody 7G11.H4 (antibody, mouse IgG1, kappa, V domains shown)
VH: B4 VH
VL: DIVMTQSQKFMSTSVGDRVSVTCKASQNVDTNIAWYQQKPGHSPKALIYSASYRYSGVPDRFTGSGSGTDFTLTIGNVQSEDLADYFCQQYDTYPLTFGSGTKLEIKR
notes: Mouse hybridoma mAb raised against FL IBP4; also called IBP4-7G11.H4
Take B5: the “ave RR” value in [3] amounted to 0.56; in assay [5] it was 0.538; in [7], 0.492; in [9], 0.598; in [10] it was 0.547; in [11], 0.404. Also, in assay [4], the equilibrium dissociation constant (Kd) is 2.8 nM. In [4], this molecule returned a koff of 0.00102 s⁻¹. Besides, the kon in [4] is 370000 M⁻¹ s⁻¹. The molecule also registered a t1/2 in assay [4] of 11.3 min. For the same molecule, the “percentage of the IBP4 RR at 25 relative to 400 coupling density” value in [6] is 75%. For the same molecule, the “Response Ratio” value in [8] amounted to 0.525. For the same molecule, the “ave IBP4 AC-MS RR” value in [12] stood at 0.525.

For orientation: Kd means a measure of binding affinity in units of concentration. High values mean lower affinity, low ones higher affinity. For orientation: koff means the first-order rate constant of dissociation. By kon is commonly meant the rate constant with which the complex forms. A low value points to slower complex formation.
